From patent US20110059888A1
[ ]: non-standard residue; d: D form. Arg(Me) = CNC(=N)NCCC[C@H](N)C(=O)O; Dap(CONH2) = NC(=O)NC[C@H](N)C(=O)O; Ala(cPr) = N[C@@H](CC1CC1)C(=O)O; Hyp = O=C(O)[C@@H]1C[C@@H](O)CN1; Aad = N[C@@H](CCCC(=O)O)C(=O)O; Cha = N[C@@H](CC1CCCCC1)C(=O)O; Cit = NC(=O)NCCC[C@H](N)C(=O)O; Cba = N[C@@H](CC1CCC1)C(=O)O; Abu = CC[C@H](N)C(=O)O; Dap = NC[C@H](N)C(=O)O; Aib = CC(C)(N)C(=O)O

B1: des(1)-Ac-[D-Tyr2,Hyp3,Thr5,Ala(cPr)8,Arg(Me)9,Trp10]MS10 (peptide)
peptide: Ac-[dY][Hyp]NTFG[Ala(cPr)][Arg(Me)]W-NH2
B2: des(1)-Ac-[D-Tyr2,Hyp3,Thr5,Cha6,Ala(cBu)8,Arg(Me)9,Trp10]MS10 (peptide)
peptide: Ac-[dY][Hyp]NT[Cha]G[Cba][Arg(Me)]W-NH2
B3: des(1)-Ac-[D-Tyr2,Hyp3,Thr5,Phe6Ψ(CH2S)Gly7,Arg(Me)9,Trp10]MS10 (peptide)
peptide: Ac-[dY][Hyp]NTFGL[Arg(Me)]W-NH2
modifications: also: Phe5-Gly6 amide bond replaced by CH2S
B4: des(1)-Ac-[D-Tyr2,Hyp3,Thr5,Cha6,Ala(cPr)8,Trp10]MS10 (peptide)
peptide: Ac-[dY][Hyp]NT[Cha]G[Ala(cPr)]RW-NH2
SMILES: CC(=O)N[C@H](Cc1ccc(O)cc1)C(=O)N1C[C@H](O)C[C@H]1C(=O)N[C@@H](CC(N)=O)C(=O)N[C@H](C(=O)N[C@@H](CC1CCCCC1)C(=O)NCC(=O)N[C@@H](CC1CC1)C(=O)N[C@@H](CCCNC(=N)N)C(=O)N[C@@H](Cc1c[nH]c2ccccc12)C(N)=O)[C@@H](C)O
B5: des(1)-Ac-[D-Tyr2,Hyp3,Thr5,Abu7,Arg(Me)9,Trp10]MS10 (peptide)
peptide: Ac-[dY][Hyp]NTF[Abu]L[Arg(Me)]W-NH2
B6: des(1)-Ac-[D-Tyr2,Hyp3,Thr5,Cha6,Gly7Ψ(CH2CH2)Leu8,Trp10]MS10 (peptide)
peptide: Ac-[dY][Hyp]NT[Cha]GLRW-NH2
modifications: also: Gly7Ψ(CH2CH2)Leu8: amide between Gly and Leu replaced by -CH2CH2-
B7: des(1)-Ac-[D-Tyr2,Hyp3,Alb4,Ser5,Cha6,Ala(cPr)8,Arg(Me)9,Trp10]MS10 (peptide)
peptide: Ac-[dY][Hyp][Dap(CONH2)]S[Cha]G[Ala(cPr)][Arg(Me)]W-NH2
SMILES: CNC(=N)NCCC[C@H](NC(=O)[C@H](CC1CC1)NC(=O)CNC(=O)[C@H](CC1CCCCC1)NC(=O)[C@H](CO)NC(=O)[C@H](CNC(N)=O)NC(=O)[C@@H]1C[C@@H](O)CN1C(=O)[C@@H](Cc1ccc(O)cc1)NC(C)=O)C(=O)N[C@@H](Cc1c[nH]c2ccccc12)C(N)=O
B8: des(1)-Ac-[D-Tyr2,Asp3,Thr5,Cha6,Ala(cPr)8,Arg(Me)9,Trp10]MS10 (peptide)
peptide: Ac-[dY]DNT[Cha]G[Ala(cPr)][Arg(Me)]W-NH2
SMILES: CNC(=N)NCCC[C@H](NC(=O)[C@H](CC1CC1)NC(=O)CNC(=O)[C@H](CC1CCCCC1)NC(=O)[C@@H](NC(=O)[C@H](CC(N)=O)NC(=O)[C@H](CC(=O)O)NC(=O)[C@@H](Cc1ccc(O)cc1)NC(C)=O)[C@@H](C)O)C(=O)N[C@@H](Cc1c[nH]c2ccccc12)C(N)=O
B9: des(1)-Ac-[D-Tyr2,Hyp3,Thr5,Cha6,8,Arg(Me)9,Trp10]MS10 (peptide)
peptide: Ac-[dY][Hyp]NT[Cha]G[Cha][Arg(Me)]W-NH2
B10: des(1)-Ac-[D-Tyr2,Hyp3,Thr5,Ala(cBu)6,Ala(cPr)8,Arg(Me)9,Trp10]MS10 (peptide)
peptide: Ac-[dY][Hyp]NT[Cba]G[Ala(cPr)][Arg(Me)]W-NH2
B11: des(1)-Ac-[D-Tyr2,Hyp3,Alb4,Ala5,Cha6,Ala(cPr)8,Arg(Me)9,Trp10]MS10 (peptide)
peptide: Ac-[dY][Hyp][Dap(CONH2)]A[Cha]G[Ala(cPr)][Arg(Me)]W-NH2
SMILES: CNC(=N)NCCC[C@H](NC(=O)[C@H](CC1CC1)NC(=O)CNC(=O)[C@H](CC1CCCCC1)NC(=O)[C@H](C)NC(=O)[C@H](CNC(N)=O)NC(=O)[C@@H]1C[C@@H](O)CN1C(=O)[C@@H](Cc1ccc(O)cc1)NC(C)=O)C(=O)N[C@@H](Cc1c[nH]c2ccccc12)C(N)=O
B12: des(1)-Ac-[D-Tyr2,Hyp3,Glu4,Thr5,Cha6,Gly7Ψ((E)CH═CH)Leu8,Arg(Me)9,Trp10]MS10 (peptide)
peptide: Ac-[dY][Hyp]ET[Cha]GL[Arg(Me)]W-NH2
modifications: also: Gly7Ψ((E)CH═CH)Leu8: amide between Gly and Leu replaced by (E) alkene
B13: des(1)-Ac-[D-Tyr2,Hyp3,Alb4,Dap5,Cha6,Ala(cPr)8,Arg(Me)9,Trp10]MS10 (peptide)
peptide: Ac-[dY][Hyp][Dap(CONH2)][Dap][Cha]G[Ala(cPr)][Arg(Me)]W-NH2
SMILES: CNC(=N)NCCC[C@H](NC(=O)[C@H](CC1CC1)NC(=O)CNC(=O)[C@H](CC1CCCCC1)NC(=O)[C@H](CN)NC(=O)[C@H](CNC(N)=O)NC(=O)[C@@H]1C[C@@H](O)CN1C(=O)[C@@H](Cc1ccc(O)cc1)NC(C)=O)C(=O)N[C@@H](Cc1c[nH]c2ccccc12)C(N)=O
B14: des(1)-Ac-[D-Tyr2,Hyp3,Cit4,Thr5,Cha6,Gly7Ψ((E)CH═CH)Leu8,Arg(Me)9,Trp10]MS10 (peptide)
peptide: Ac-[dY][Hyp][Cit]T[Cha]GL[Arg(Me)]W-NH2
modifications: also: Gly7Ψ((E)CH═CH)Leu8: amide between Gly and Leu replaced by (E) alkene
B15: des(1)-Ac-[D-Tyr2,Glu3,Thr5,Cha6,Ala(cPr)8,Trp10]MS10 (peptide)
peptide: Ac-[dY]ENT[Cha]G[Ala(cPr)]RW-NH2
SMILES: CC(=O)N[C@H](Cc1ccc(O)cc1)C(=O)N[C@@H](CCC(=O)O)C(=O)N[C@@H](CC(N)=O)C(=O)N[C@H](C(=O)N[C@@H](CC1CCCCC1)C(=O)NCC(=O)N[C@@H](CC1CC1)C(=O)N[C@@H](CCCNC(=N)N)C(=O)N[C@@H](Cc1c[nH]c2ccccc12)C(N)=O)[C@@H](C)O
B16: des(1)-Ac-[D-Tyr2,Lys3,Thr5,Cha6,Ala(cPr)8,Arg(Me)9,Trp10]MS10 (peptide)
peptide: Ac-[dY]KNT[Cha]G[Ala(cPr)][Arg(Me)]W-NH2
modifications: not fully specified; printed as Ac-D-Tyr-Lys-Asn-Thr-Cha-Gly-Ala(cPr)-Arg(Me)-Trp-NH2
B17: des(1)-Ac-[D-Tyr2,Aib3,Thr5,Cha6,Ala(cPr)8,Arg(Me)9,Trp10]MS10 (peptide)
peptide: Ac-[dY][Aib]NT[Cha]G[Ala(cPr)][Arg(Me)]W-NH2
SMILES: CNC(=N)NCCC[C@H](NC(=O)[C@H](CC1CC1)NC(=O)CNC(=O)[C@H](CC1CCCCC1)NC(=O)[C@@H](NC(=O)[C@H](CC(N)=O)NC(=O)C(C)(C)NC(=O)[C@@H](Cc1ccc(O)cc1)NC(C)=O)[C@@H](C)O)C(=O)N[C@@H](Cc1c[nH]c2ccccc12)C(N)=O
B18: des(1)-Ac-[D-Tyr2,Hyp3,Alb4,Thr5,Cha6,Gly7Ψ(CH2CH2)Leu8,Trp10]MS10 (peptide)
peptide: Ac-[dY][Hyp][Dap(CONH2)]T[Cha]GLRW-NH2
modifications: also: Gly7-Leu8 amide bond replaced by -CH2CH2-
B19: des(1)-Ac-[D-Tyr2,Hyp3,Thr5,Dap7,Arg(Me)9,Trp10]MS10 (peptide)
peptide: Ac-[dY][Hyp]NTF[Dap]L[Arg(Me)]W-NH2
B20: des(1)-Ac-[D-Tyr2,Hyp3,Alb4,Thr5,Cha6,Gly7Ψ(CH2CH2)Leu8,Arg(Me)9,Trp10]MS10 (peptide)
peptide: Ac-[dY][Hyp][Dap(CONH2)]T[Cha]GL[Arg(Me)]W-NH2
modifications: also: Gly7-Leu8 amide bond replaced by -CH2CH2-
B21: des(1)-Ac-[D-Tyr2,Hyp3,Alb4,Thr5,Cha6,Ala(cPr)8,Arg(Me)9,Trp10]MS10 (peptide)
peptide: Ac-[dY][Hyp][Dap(CONH2)]T[Cha]G[Ala(cPr)][Arg(Me)]W-NH2
SMILES: CNC(=N)NCCC[C@H](NC(=O)[C@H](CC1CC1)NC(=O)CNC(=O)[C@H](CC1CCCCC1)NC(=O)[C@@H](NC(=O)[C@H](CNC(N)=O)NC(=O)[C@@H]1C[C@@H](O)CN1C(=O)[C@@H](Cc1ccc(O)cc1)NC(C)=O)[C@@H](C)O)C(=O)N[C@@H](Cc1c[nH]c2ccccc12)C(N)=O
B22: des(1)-Ac-[D-Tyr2,Hyp3,Gln4,Thr5,Cha6,Gly7Ψ((E)CH═CH)Leu8,Arg(Me)9,Trp10]MS10 (peptide)
peptide: Ac-[dY][Hyp]QT[Cha]GL[Arg(Me)]W-NH2
modifications: also: Gly7Ψ((E)CH═CH)Leu8: amide between Gly and Leu replaced by (E) alkene
B23: des(1)-Ac-[D-Tyr2,Hyp3,Alb4,Gly5,Cha6,Ala(cPr)8,Arg(Me)9,Trp10]MS10 (peptide)
peptide: Ac-[dY][Hyp][Dap(CONH2)]G[Cha]G[Ala(cPr)][Arg(Me)]W-NH2
SMILES: CNC(=N)NCCC[C@H](NC(=O)[C@H](CC1CC1)NC(=O)CNC(=O)[C@H](CC1CCCCC1)NC(=O)CNC(=O)[C@H](CNC(N)=O)NC(=O)[C@@H]1C[C@@H](O)CN1C(=O)[C@@H](Cc1ccc(O)cc1)NC(C)=O)C(=O)N[C@@H](Cc1c[nH]c2ccccc12)C(N)=O
B24: des(1)-Ac-[D-Tyr2,Aad3,Thr5,Cha6,Ala(cPr)8,Arg(Me)9,Trp10]MS10 (peptide)
peptide: Ac-[dY][Aad]NT[Cha]G[Ala(cPr)][Arg(Me)]W-NH2
SMILES: CNC(=N)NCCC[C@H](NC(=O)[C@H](CC1CC1)NC(=O)CNC(=O)[C@H](CC1CCCCC1)NC(=O)[C@@H](NC(=O)[C@H](CC(N)=O)NC(=O)[C@H](CCCC(=O)O)NC(=O)[C@@H](Cc1ccc(O)cc1)NC(C)=O)[C@@H](C)O)C(=O)N[C@@H](Cc1c[nH]c2ccccc12)C(N)=O

Biological target: human OT7T175 (metastin receptor) (human) (UniProt Q969F8)
UniProt Q969F8, sequence (Q969F8 whole entry L364H): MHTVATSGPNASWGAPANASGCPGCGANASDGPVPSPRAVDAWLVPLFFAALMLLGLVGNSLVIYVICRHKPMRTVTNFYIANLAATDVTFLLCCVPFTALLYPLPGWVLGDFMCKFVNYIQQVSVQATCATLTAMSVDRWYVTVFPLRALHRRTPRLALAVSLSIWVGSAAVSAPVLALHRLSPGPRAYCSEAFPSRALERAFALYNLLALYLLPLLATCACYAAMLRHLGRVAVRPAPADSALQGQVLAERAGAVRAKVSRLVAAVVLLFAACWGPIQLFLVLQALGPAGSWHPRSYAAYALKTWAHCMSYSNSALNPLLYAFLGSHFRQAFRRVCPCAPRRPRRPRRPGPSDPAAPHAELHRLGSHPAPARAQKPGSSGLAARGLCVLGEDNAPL
Experiment: cell-based or functional assay

| Specific Activity (EC50 of test compound based on EC50 of Metastin (45-54); intracellular calcium, FLIPR) (ratio to EC50 of Metastin (45-54)) | Binder |
| --- | --- |
| 0.8 | B1 |
| 0.5 | B2 |
| 0.7 | B3 |
| 0.5 | B4 |
| 1 | B5 |
| 1.1 | B6 |
| 0.5 | B7 |
| 2.5 | B8 |
| 3.5 | B9 |
| 0.7 | B10 |
| 0.5 | B11 |
| 4.6 | B12 |
| 0.7 | B13 |
| 0.9 | B14 |
| 0.4 | B15 |
| 0.7 | B16 |
| 0.6 | B17 |
| 1.3 | B18 |
| 1.3 | B19 |
| 1.1 | B20 |
| 0.5 | B21 |
| 1.4 | B22 |
| 0.7 | B23 |
| 1.1 | B24 |
